Consider one substance from article PMC9485057.

For experiment [1], the target named is FbxwD-FLAG (endogenous locus tagged) (D. discoideum). Description: co-IP; FbxwD-FLAG precipitated with anti-FLAG M2 magnetic beads from S21 lysates of phyA+ or phyA– vegetative or slug cells, 4 °C 1 h; Skp1 detected by Western blot (pAb UOK77), densitometry. For orientation: In western blotting, separated proteins are transferred to a membrane and probed.
Experiment [2] concerns the target JcdI-FLAG (endogenous locus tagged) (D. discoideum) (UniProt Q55CL5). Description: co-IP; FLAG-JcdI or JcdI-FLAG precipitated with anti-FLAG M2 beads from NP-40 lysates of vegetative or slug cells, 4 °C 1 h, washed in 50 mM Tris-HCl pH 8.0, 150 mM NaCl, 0.2% NP-40; Skp1 detected by Western blot.
Sequence of UniProt Q55CL5 (Q55CL5 entry or part of it): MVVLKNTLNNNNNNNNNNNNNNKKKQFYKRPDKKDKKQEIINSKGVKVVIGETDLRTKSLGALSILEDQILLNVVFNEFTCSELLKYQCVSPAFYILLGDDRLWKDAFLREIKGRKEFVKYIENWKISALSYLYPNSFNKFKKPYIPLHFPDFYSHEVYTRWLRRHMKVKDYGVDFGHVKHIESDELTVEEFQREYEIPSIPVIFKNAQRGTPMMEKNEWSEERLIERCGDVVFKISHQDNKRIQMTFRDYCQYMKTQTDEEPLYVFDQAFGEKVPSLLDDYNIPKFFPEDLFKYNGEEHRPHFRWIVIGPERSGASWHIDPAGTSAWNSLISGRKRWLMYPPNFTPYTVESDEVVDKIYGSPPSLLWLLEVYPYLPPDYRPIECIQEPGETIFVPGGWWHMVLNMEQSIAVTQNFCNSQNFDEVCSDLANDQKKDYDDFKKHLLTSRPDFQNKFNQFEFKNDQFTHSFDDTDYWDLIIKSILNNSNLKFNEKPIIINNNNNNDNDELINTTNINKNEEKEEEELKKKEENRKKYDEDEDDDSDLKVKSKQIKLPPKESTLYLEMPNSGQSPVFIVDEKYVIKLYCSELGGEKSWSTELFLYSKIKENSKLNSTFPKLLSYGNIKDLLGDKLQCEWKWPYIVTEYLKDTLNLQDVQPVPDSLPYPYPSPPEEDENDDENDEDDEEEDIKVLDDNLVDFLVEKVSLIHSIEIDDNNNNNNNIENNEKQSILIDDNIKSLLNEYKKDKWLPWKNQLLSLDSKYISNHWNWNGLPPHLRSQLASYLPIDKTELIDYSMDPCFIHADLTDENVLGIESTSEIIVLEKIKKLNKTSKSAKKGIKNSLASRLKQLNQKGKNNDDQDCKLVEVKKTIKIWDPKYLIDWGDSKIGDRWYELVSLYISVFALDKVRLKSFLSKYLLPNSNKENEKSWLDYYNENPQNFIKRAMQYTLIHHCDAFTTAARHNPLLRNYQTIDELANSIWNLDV

In experiment [1], “Skp1 (endogenous, from phyA+ / gnt1+ cells; hydroxylated and glycosylated) (from UniProt P52285 1-162) (natural protein)” displayed a fold more Skp1 co-IPed with FbxwD-FLAG, phyA+ versus phyA– slug cells of 4 fold and a fold more Skp1 co-IPed with FbxwD-FLAG, phyA+ versus phyA– vegetative cells of 2.5 fold. In addition, in experiment [2], the fold more Skp1 (Skp1:JcdI ratio) co-IPed with JcdI-FLAG, gnt1+ versus gnt1– vegetative cells came to 2 fold and the fold preferential interaction with JcdI-FLAG, gnt1+ versus gnt1– slug cells is 2 fold.
